According to US11630109B2, “Sensors and assays for ubiquitin or ubiquitin-like proteins” (Colorado State University Research Foundation, priority 2013, dated 2023):

Columns and labels:
Format in all cases: binding
[1] = target: T1, Nedd8 (Homo sapiens, UniProt Q15843); experiment: Fluorescence intensity titration of Atto532-tIV with free Nedd8
Protocol: FIG. 22 provides a graph showing that Atto532-tagged tIV L1 Cys binds to free Nedd8 with a Kd of several μM.
Increasing concentrations of free Nedd8 protein were added to Atto532-tIV, and the fluorescence intensity was measured (see FIG. 22).

[2] = target: T1, Nedd8; experiment: tSR competition assay with Atto532-tagged ubiquitin, relative fluorescence; conditions: 5 nM Atto532-tagged ubiquitin protein and 600 nM tSR
Protocol: A competition assay was performed where unconjugated free ubiquitin proteins, different kinds of conjugated free ubiquitin proteins, and Nedd8 were added to mixtures of 5 nM Atto532-tagged ubiquitin protein and 600 nM tSR. The relative fluorescence was measured. […] The Ki values for unconjugated ubiquitin proteins and the different kinds of conjugated free ubiquitin proteins are provided in a table (bottom).
The binding affinities of tSR were determined (see FIG. 25). A competition assay was performed where free ubiquitin proteins, different kinds of conjugated free ubiquitin proteins, and Nedd8 were added to mixtures of 5 nM Atto532-tagged ubiquitin protein and 600 nM tSR. The relative fluorescence was measured. […] The Ki values for unconjugated ubiquitin proteins and the different kinds of conjugated free ubiquitin proteins are provided in a table (see FIG. 25).

[3] = target: T1, Nedd8; experiment: Direct titration of Alexa488-tagged tSR, relative fluorescence; conditions: 10 nM Alexa488 tSR
Protocol: (§1) The relative fluorescence intensity changes of Alexa488-tagged tSR when ubiquitin is added is shown (middle). The relative fluorescence of 10 nM Alexa488 tSR when different concentrations of unconjugated ubiquitin protein, conjugated ubiquitin protein, or Nedd8 are added (right).
(§2) The tSR can be used for direct titration experiments (see FIG. 26). The relative fluorescence intensity changes of Alexa488-tagged tSR when ubiquitin is added at varying concentrations. The relative fluorescence of 10 nM Alexa488 tSR was measured with different concentrations of unconjugated ubiquitin protein, conjugated ubiquitin protein, or Nedd8.

[4] = target: unconjugated ubiquitin protein (Homo sapiens, UniProt P0CG48); experiment: as above; conditions: 10 nM Alexa488 tSR
Protocol: as §1, §2

[5] = tested on: conjugated ubiquitin protein; experiment: as above; conditions: 10 nM Alexa488 tSR
Protocol: as §1, §2

T1 sequence (Q15843 1-76 limits assumed): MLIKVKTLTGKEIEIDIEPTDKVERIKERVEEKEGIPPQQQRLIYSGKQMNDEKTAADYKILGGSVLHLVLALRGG

B1: tIV: chimeric protein with two ubiquitin binding domains, IsoT ZnF and Vps27 UIM, SEQ ID NO: 5 (protein)
chain: MGSSHHHHHHSSGLVPRGSHMKQEVQAWDGEVRQVSKHAFSLKQLDNPARIPPSGWKCSKCDMRENLWLNLTDGSILCGRRYFDGSGGNNHAVEHYRETGYPLAVKLGTITPDGADVWSYDEDDMVLDPSLAEHLSHFGIDMLKMQKGSCAAAEEAELDLKAAIQESLREA
modifications: tIV - Atto532-tagged chimeric polypeptide comprising two binding domains that bind ubiquitin in non-overlapping regions
[1]; predicted from binding interactions of Vps27UIM and Nedd8
  binding affinity for free Nedd8 protein compared with conjugated Nedd8 protein: greater binding affinity

B2: Atto532-tagged tIV L1 Cys: tIV L1 Cys (SEQ ID NO: 5) tagged with Atto532 fluorophore at the linker Cys (conjugate)
chain: MGSSHHHHHHSSGLVPRGSHMKQEVQAWDGEVRQVSKHAFSLKQLDNPARIPPSGWKCSKCDMRENLWLNLTDGSILCGRRYFDGSGGNNHAVEHYRETGYPLAVKLGTITPDGADVWSYDEDDMVLDPSLAEHLSHFGIDMLKMQKGSCAAAEEAELDLKAAIQESLREA
modifications: Atto532 fluorophore on linker Cys; tIV - Atto532-tagged chimeric polypeptide comprising two binding domains that bind ubiquitin in non-overlapping regions
[1]; free Nedd8 added to Atto532-tIV, fluorescence intensity
  KD for Nedd8: several

B3: tSR: universal chimeric polypeptide sensor, SEQ ID NO: 7: S5a UIM and Ruz domains connected by a linker (protein)
chain: MPSSHHHHHHSSGLVPRGSHMTEEEQIAYAMQMSLREAGGGSDLLCKKGCGYYGNPAWQGFCSKCWREEAHKCAAERAAAE
modifications: tSR - chimeric polypeptide comprising two binding domains that bind ubiquitin in non-overlapping regions
[2]
  specificity against Nedd8: specificity against Nedd8

B4: Alexa488-tagged tSR: tSR tagged with Alexa488 fluorophore (conjugate)
chain: MPSSHHHHHHSSGLVPRGSHMTEEEQIAYAMQMSLREAGGGSDLLCKKGCGYYGNPAWQGFCSKCWREEAHKCAAERAAAE
[3]
  binding of Nedd8 protein: but not Nedd8 protein
[4]
  binding of unconjugated ubiquitin protein: detected
[5]
  binding of conjugated ubiquitin protein: detected
